Source: paper doi:10.1101/2022.02.08.479534, “FoxP3 can fold into two distinct dimerization states with divergent functional implications for T cell homeostasis”

Experiments:
Test in all cases: EMSA; equal to sFKHM; EMSA: 0.2 uM DNA, 20 mM Tris pH 7.5, 150 mM NaCl, 1.5 mM MgCl2, 2 mM DTT, 30 min at 4 C; anti-HA bead DNA pull-down: 20 min at room temperature; the EMSA IR-FKHM4g length is taken as 31 bp
Details in all cases: protein: recombinant; tags: His6-NusA; blunt
[1] = molecular target: T1, NusA-FoxP2RBR-forkhead (Mus musculus, UniProt P58463 447-588)
T1 sequence: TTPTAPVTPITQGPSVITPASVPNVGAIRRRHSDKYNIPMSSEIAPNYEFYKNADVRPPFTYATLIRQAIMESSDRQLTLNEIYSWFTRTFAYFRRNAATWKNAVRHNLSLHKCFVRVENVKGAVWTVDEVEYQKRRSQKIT

[2] = molecular target: T2, NusA-FoxP4RBR-forkhead (Mus musculus, UniProt Q9DBY0 418-577)
T2 sequence: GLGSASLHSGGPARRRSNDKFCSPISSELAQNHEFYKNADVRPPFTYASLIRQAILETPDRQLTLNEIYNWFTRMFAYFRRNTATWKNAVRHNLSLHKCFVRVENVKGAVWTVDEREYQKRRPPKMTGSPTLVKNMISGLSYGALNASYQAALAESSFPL

[3] = molecular target: T3, NusA-FoxP1RBR-forkhead (Mus musculus, UniProt P58462 433-579)
T3 sequence: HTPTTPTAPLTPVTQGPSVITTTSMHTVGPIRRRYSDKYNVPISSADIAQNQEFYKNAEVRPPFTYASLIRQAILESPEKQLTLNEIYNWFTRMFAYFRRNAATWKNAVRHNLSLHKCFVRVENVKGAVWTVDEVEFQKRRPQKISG

Measured: binding result

B1: IR-FKHM4g (31bp) (dsDNA)
DNA 1: TTAGGAAAATTTGTTTACTCGAGTAAACAAA
DNA 2: TTTGTTTACTCGAGTAAACAAATTTTCCTAA
binds: [1] | [2] | [3]
